Test results published in US20140193400A1 (ESBATECH AN ALCON BIOMEDICAL RESEARCH UNIT, published 2014).
Where “and” joins values, the source holds several entries; their conditions need not be identical. Equal entries are not always repeated.

Experiments:
[1] = target: T1, Human TNFa N-his trimers (His-tagged TNF, produced at ESBATech) (human, UniProt P01375 77-233); test: SPR (BIAcore T100), His-tagged human TNF captured on NTA chip, scFv as analyte
T1 construct: Captured as trimers on a Ni-NTA sensor chip by the N-terminal His tags in the Biacore assay of the general methods; also called human TNFα; human TNF alpha; not shown: N-terminal His tag
Protocol: (§1) For binding affinity measurements at pH5 and pH 7.4 (data not shown), surface Plasmon resonance measurements with BIAcore™-T 100 were employed using a NTA sensor chip and His-tagged TNF (produced at ESBATech). The surface of the NTA sensor chip consists of a carboxymethylated dextran matrix pre-immobilized with nitrilotriacetic acid (NTA) for capture of histidine tagged molecules via Ni2+NTA chelation. Human TNFa N-his trimers (5 nM) are captured by the nickel via their N-terminal his-tags and ESBA105 (analyte) is injected at several concentrations ranging from 30 nM to 0.014 nM in 3 fold serial dilution steps. At the regeneration step, the complex formed by nickel, ligand and analyte is washed away. This allows the use of the same regeneration conditions for different samples. The response signal is generated by surface Plasmon resonance (SPR) technology and measured in resonance units (RU). All the measurements are performed at 25° C. Sensorgrams were generated for each anti-TNF scFv sample after in-line reference cell correction followed by buffer sample subtraction. The apparent dissociation rate constant (kd), the apparent association rate constant (kₐ) and the apparent dissociation equilibrium constant (KD) were calculated using one-to-one Langmuir binding model with BIAcore T100 evaluation Software version 1.1.

[2] = target: T2, recombinant human TNFalpha (human, UniProt P01375 77-233); test: cell-based or functional assay
[3] = target: T1, Human TNFa N-his trimers (His-tagged …); test: SPR (BIAcore), His-tagged human TNF captured on NTA chip, scFv as analyte; units taken from paragraph 184
Protocol: as §1

[4] = target: T2, recombinant human TNFalpha; test: cell-based or functional assay; remark: listed apart in the source

T1 sequence (P01375 77-233 limits assumed): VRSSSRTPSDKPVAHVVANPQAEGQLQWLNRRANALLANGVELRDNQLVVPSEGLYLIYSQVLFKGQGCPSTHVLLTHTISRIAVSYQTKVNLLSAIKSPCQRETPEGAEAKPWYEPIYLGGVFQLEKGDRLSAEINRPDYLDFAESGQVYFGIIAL
T2 sequence (P01375 77-233 limits assumed): as above

Binder	Kd [1] [nM]	koff [1] [s⁻¹]	kon [1] [M⁻¹ s⁻¹]	L929* [EC50-E105/EC50-X], potency relative to ESBA105 [2]	other results
EP6_min (scFv, scFv NH2-VL-(GGGGS)4-VH-COOH; also called 673) scFv: EIVMTQSPSTLSASVGDRVIITCQASESIYSGLAWYQQKPGKAPKLLIYQASTLASGVPSRFSGSGSGAEFTLTISSLQPDDFATYYCQQGFGTSNVENPFGQGTKLTVLGGGGGSGGGGSGGGGSGGGGSEVQLVESGGGLVQPGGSLRLSCAASGFSLSRYGVSWVRQAPGKGLEWVSTIGEAGRAYYANWARSRFTISRDNSKNTLYLQMNSLRAEDTAVYYCAKGEVFNNGWGAFNIWGQGTLVTVSS	106	0.00494	46700		
EP15_min (scFv, scFv NH2-VL-(GGGGS)4-VH-COOH; also called 1073) scFv: EIVMTQSPSTLSASVGDRVIITCQASENIYTSLAWYQQKPGKAPKLLIYSASTLASGVPSRFSGSGSGAEFTLTISSLQPDDFATYYCQQGFATSNVENPFGQGTKLTVLGGGGGSGGGGSGGGGSGGGGSEVQLVESGGGLVQPGGSLRLSCAASGFTFSRYGVSWVRQAPGKGLEWVSAIGETGRAYYANWAKSRFTISRDNSKNTLYLQMNSLRAEDTAVYYCAKGEEFNNGWGAFNIWGQGTLVTVSS	262	0.041	157000		
EP43_maxmin (scFv, also called 959) scFv: EIVMTQSPSTLSASVGDRVIIKCQASQSISDWLAWYQQKPGKAPKLLIYGASRLASGFPSRFSGSGSGAEFTLTISGLEPADFATYYCQQGWSDSYVDNLFGQGTKLTVLGGGGGSGGGGSGGGGSGGGGSEVQLVESGGGLVQPGGSLRLSCAASGFSLSSGAMSWVRQAPGKGLEWVSVIISSGATYYASWAKGRFTISRDNSKNTLYLQMNSLRAEDTAVYYCAKGGPDDSNSMGTFDPWGQGTLVTVSS					Kd [3]: 36.6 nM; koff [3]: 0.00533 s⁻¹; kon [3]: 146000 M⁻¹ s⁻¹
EP43_min (scFv, scFv NH2-VL-(GGGGS)4-VH-COOH; also called 705) scFv: EIVMTQSPSTLSASVGDRVIITCQASQSISDWLAWYQQKPGKAPKLLIYGASRLASGVPSRFSGSGSGAEFTLTISSLQPDDFATYYCQQGWSDSYVDNLFGQGTKLTVLGGGGGSGGGGSGGGGSGGGGSEVQLVESGGGLVQPGGSLRLSCAASGFSLSSGAMSWVRQAPGKGLEWVSVIISSGATYYASWAKGRFTISRDNSKNTLYLQMNSLRAEDTAVYYCAKGGPDDSNSMGTFDPWGQGTLVTVSS	5540	0.0298	5380		
ESBA105 (scFv) MADIVMTQSPSSLSASVGDRVTLTCTASQSVSNDVVWYQQRPGKAPKLLIYSAFNRYTGVPSRFSGRGYGTDFTLTISSLQPEDVAVYYCQQDYNSPRTFGQGTKLEVKRGGGGSGGGGSGGGGSSGGGSQVQLVQSGAEVKKPGASVKVSCTASGYTFTHYGMNWVRQAPGKGLEWMGWINTYTGEPTYADKFKDRFTFSLETSASTVYMELTSLTSDDTAVYYCARERGDAMDYWGQGTLVTVSS					EC50, L929 potency assay [4]: 6.5 ng/mL
EP1_max (scFv, scFv NH2-VL-(GGGGS)4-VH-COOH; also called 1072) scFv: EIVMTQSPSTLSASVGDRVIITCQSTESVYKNNYLAWYQQKPGKAPKLLIYDASTLASGVPSRFSGSGSGTEFTLTISSLQPDDFATYYCAGYYRSGSGTANGSFGQGTKLTVLGGGGGSGGGGSGGGGSGGGGSEVQLVESGGGSVQPGGSLRLSCTVSGIDLSNDAISWVRQAPGKGLEWVAYISDWSIRYYANWAQGRFTISKDTSKNTVYLQMNSLRAEDTATYYCARGAPGAGDNGIWGQGTTVTVSS	56.9	0.00063	11100		

More lines, in order of falling Kd [1], values ahead:

Kd [1] [nM]	koff [1] [s⁻¹]	kon [1] [M⁻¹ s⁻¹]	L929* [EC50-E105/EC50-X], potency relative to ESBA105 [2]	Binder	other results
58.7	0.00835	142000		EP42_min (scFv, scFv NH2-VL-(GGGGS)4-VH-COOH; also called 1076) scFv: EIVMTQSPSTLSASVGDRVIITCQSTESVYKNNYLAWYQQKPGKAPKLLIYDASTLASGVPSRFSGSGSGAEFTLTISSLQPDDFATYYCAGYYRSGFGTANGSFGQGTKLTVLGGGGGSGGGGSGGGGSGGGGSEVQLVESGGGLVQPGGSLRLSCAASGFTFRNDAISWVRQAPGKGLEWVSYISDWGIKYYASWVKGRFTISRDNSKNTLYLQMNSLRAEDTAVYYCAKGAPGAGDNGIWGQGTLVTVSS	
3.46	0.000419	121000		EP42_max (scFv, scFv NH2-VL-(GGGGS)4-VH-COOH; also called 1077) scFv: EIVMTQSPSTLSASVGDRVIITCQSTESVYKNNYLAWYQQKPGKAPKLLIYDASTLASGVPSRFSGSGSGTEFTLTISSLQPDDFATYYCAGYYRSGFGTANGSFGQGTKLTVLGGGGGSGGGGSGGGGSGGGGSEVQLVESGGGSVQPGGSLRLSCTVSGIDLRNDAISWVRQAPGKGLEWVSYISDWGIKYYASWVKGRFTISKDTSKNTVYLQMNSLRAEDTATYYCARGAPGAGDNGIWGQGTTVTVSS	
2.91	6.54e-05	22500	0.6 ratio EC50 ESBA105/EC50 X (mass units, ng/ml)	EP19_max (scFv, also called 1007; EP19maxmod) scFv: EIVMTQSPSTLSASVGDRVIITCQASDNIYRGLAWYQQKPGKAPKLLIYDASTLQSGVPSRFSGSGSGTQFTLTISSLQPDDFATYYCLGVYGYSSDDGAAFGQGTKLTVLGGGGGSGGGGSGGGGSGGGGSEVQLVESGGGLVQPGGSLRLSCTVSGFSLNSNEISWVRQAPGKGLEWVGYIGNGGMTHYASWAKGRFTISRDTSKNTVYLQMNSLRAEDTAVYYCASSVEYTDLYYLNIWGQGTLVTVSS	
1.48	0.00226	1.53e+06	0.39 ratio EC50 ESBA105/EC50 X (mass units, ng/ml)	EP15_max (scFv, scFv NH2-VL-(GGGGS)4-VH-COOH; also called 1074) scFv: EIVMTQSPSTLSASVGDRVIITCQASENIYTSLAWYQQKPGKAPKLLIYSASTLASGVPSRFSGSGSGTEFTLTISSLQPDDFATYYCQQGFATSNVENPFGQGTKLTVLGGGGGSGGGGSGGGGSGGGGSEVQLVESGGGSVQPGGSLRLSCTVSGFSLSRYGVSWVRQAPGKGLEWVGAIGETGRAYYANWAKSRSTISRDTSKNTVYLQMNSLRAEDTATYYCARGEEFNNGWGAFNIWGQGTTVTVSS	
0.512	0.000145	284000	1.1 ratio EC50 ESBA105/EC50 X (mass units, ng/ml)	EP6_max (scFv, scFv NH2-VL-(GGGGS)4-VH-COOH; also called 674) scFv: EIVMTQSPSTLSASVGDRVIITCQASESIYSGLAWYQQKPGKAPKLLIYQASTLASGVPSRFSGSGSGTDFTLAISSLQPDDFATYYCQQGFGTSNVENPFGQGTKLTVLGGGGGSGGGGSGGGGSGGGGSEVQLVESGGGLVQPGGSLRLSCTVSGFSLSRYGVSWVRQAPGKGLEWVGTIGEAGRAYYANWARSRSTISRDTSKNTVYLQMNSLRAEDTAVYYCARGEVFNNGWGAFNIWGQGTLVTVSS	
0.194	0.00015	772000	5.2 ratio EC50 ESBA105/EC50 X (mass units, ng/ml)	EP35_max (scFv, scFv NH2-VL-(GGGGS)4-VH-COOH; also called 1089) scFv: EIVMTQSPSTLSASVGDRVIITCQASQSISNLLAWYQQKPGKAPKLLIVAASKLASGVPSRFSGSGSGTEFTLTISSLQPDDFATYYCQQGWSHTNVDNTFGQGTKLTVLGGGGGSGGGGSGGGGSGGGGSEVQLVESGGGSVQPGGSLRLSCTASGFSFSVGYWICWVRQAPGKGLEWVACIDAGTSGGTYYATWAKGRFTISKDTSKNTVYLQMNSLRAEDTATYYCARGVSSNGYYFKLWGQGTTVTVSS	
0.0286	1.68e-05	586000	10.5 ratio EC50 ESBA105/EC50 X (mass units, ng/ml)	EP34_max (scFv, scFv NH2-VL-(GGGGS)4-VH-COOH; also called Epi34max; 791) scFv: EIVMTQSPSTLSASLGDRVIITCQSSQSVYGNIWMAWYQQKSGKAPKLLIYQASKLASGVPSRFSGSGSGAEFSLTISSLQPDDFATYYCQGNFNTGDRYAFGQGTKLTVLGGGGGSGGGGSGGGGSGGGGSEVQLVESGGGLVQPGGSLRLSCTASGFTISRSYWICWVRQAPGKGLEWVACIYGDNDITPLYANWAKGRFPVSTDTSKNTVYLQMNSLRAEDTAVYYCARLGYADYAYDLWGQGTLVTVSS	IC50, block of cytotoxic activity (human Kym-1 cells, 10 pg/ml TNF) [4]: 0.69 ng/mL and 0.63 ng/mL; IC50, block of cytotoxic activity (murine L929 cells, 1000 pg/ml TNF) [4]: 1.03 ng/mL and 1.04 ng/mL
